Reference: PMC8131977 (Biochemistry and Biophysics Reports, 2021)

Target: T1, Bacillus licheniformis subtilisin A (Bacillus licheniformis, UniProt P00780 106-379)
T1 sequence (looked up): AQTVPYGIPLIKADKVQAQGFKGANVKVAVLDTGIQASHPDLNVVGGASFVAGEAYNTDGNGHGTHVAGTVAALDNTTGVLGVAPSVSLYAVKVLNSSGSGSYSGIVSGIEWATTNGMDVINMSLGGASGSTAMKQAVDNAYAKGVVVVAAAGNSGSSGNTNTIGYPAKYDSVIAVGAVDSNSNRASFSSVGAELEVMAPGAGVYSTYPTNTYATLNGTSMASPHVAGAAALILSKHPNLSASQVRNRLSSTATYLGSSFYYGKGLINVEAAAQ
Test: enzyme inhibition assay

B1: rCmPI-II R12A, alanine mutant at the P1 position of CmPI-II (natural protein, Cenchritis muricatus, UniProt P84755 1-50, looked up)
chain: AEDCVGRKACTAEWYPVCGSDGVTYSNPCNFSAQQEQCDPNITIAHMGEC
How did the “fold decrease of IC50 against rCmPI-II” value turn out when B1 was run?
The value was 3 fold.
